Percentage of live NKp46-expressing K562 target cells after 24 hours with CAR T cells, 2:1 and autologous primary NK cells killed, 2:1 E:T data for two substances are collected here from patent US20230348854A1.

Assay [1] deals with Human NKp46 (NCR1, CD335), on cells (human) (UniProt O76036). The assay can be described thus: cell-based or functional assay.
The target in assay [2] is Human CD94/NKG2A inhibitory receptor (CD159a), on NK cells (human) (UniProt Q13241). The assay can be described thus: cell-based or functional assay.

Chain of UniProt O76036 (O76036 22-304 Q82K limits assumed): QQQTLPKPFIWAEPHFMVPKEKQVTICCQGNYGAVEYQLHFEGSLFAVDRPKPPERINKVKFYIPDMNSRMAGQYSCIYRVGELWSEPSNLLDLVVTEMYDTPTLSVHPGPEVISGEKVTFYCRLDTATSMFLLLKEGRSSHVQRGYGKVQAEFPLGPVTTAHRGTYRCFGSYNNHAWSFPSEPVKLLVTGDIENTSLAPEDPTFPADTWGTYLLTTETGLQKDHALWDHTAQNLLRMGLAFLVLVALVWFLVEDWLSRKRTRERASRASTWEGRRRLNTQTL

In assay [1], “anti-CD19 CAR (αCD19 control CAR), expressed on primary human T cells (scFv)” returned a percentage of live NKp46-expressing K562 target cells after 24 hours with CAR T cells, 2:1 of 16.2%. Consider “anti-NKG2A (HLA-E) CAR (αNKG2A CAR): G peptide/B2M/HLA-E 01:03 single-chain trimer fused to 4-1BB/CD3 zeta, expressed on primary human T cells (peptide-MHC)”, for which the autologous primary NK cells killed, 2:1 E:T in assay [2] was determined as 64%.
